Results: patent publication US10295551B2, “Development and use of fluorescent probes of unbound bilirubin” (Alan Marc Kleinfeld, priority 2011, dated 2019)
Positions count from the first letter of the chain named. Like-named read-outs stand apart in the source and are kept apart here. Values belong to the molecule of their own block, whether it stands above or below them.

What was measured:
human albumin = molecular target: T1, human albumin (Homo sapiens, UniProt P02768); assay: Bilirubin binding to a single human albumin site (bilirubin spiked plasma); settings: prediction in good agreement with measured [Bf] in spiked pooled human plasma
T1 construct: Pooled human plasma (Golden West Biologicals) for which [albumin] was 620 μM was spiked with bilirubin; tissue Golden West Biologicals; host or cells: pooled human plasma
T1 sequence (P02768 25-609): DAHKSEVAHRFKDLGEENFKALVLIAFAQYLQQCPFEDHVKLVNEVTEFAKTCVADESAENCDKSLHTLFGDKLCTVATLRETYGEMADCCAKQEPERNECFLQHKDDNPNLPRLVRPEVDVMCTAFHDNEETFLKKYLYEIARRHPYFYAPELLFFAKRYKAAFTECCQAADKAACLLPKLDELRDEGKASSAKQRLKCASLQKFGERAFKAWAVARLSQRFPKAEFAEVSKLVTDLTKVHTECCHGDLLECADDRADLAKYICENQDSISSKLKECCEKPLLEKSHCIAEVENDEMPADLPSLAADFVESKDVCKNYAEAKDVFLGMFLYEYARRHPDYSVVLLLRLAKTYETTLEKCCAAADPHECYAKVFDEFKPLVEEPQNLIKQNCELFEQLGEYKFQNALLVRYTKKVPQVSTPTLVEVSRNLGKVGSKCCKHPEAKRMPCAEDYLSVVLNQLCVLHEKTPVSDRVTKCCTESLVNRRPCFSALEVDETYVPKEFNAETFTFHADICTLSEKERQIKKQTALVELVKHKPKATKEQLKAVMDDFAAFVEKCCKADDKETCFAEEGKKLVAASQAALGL
Procedure: Pooled human plasma (Golden West Biologicals) for which [albumin] was 620 μM was spiked with bilirubin to generate plasma samples with bilirubin/albumin ratios from of approximately 0 to 0.9. Measurements of [Bf] were carried out using BL22P1B1-Rh in either a Fluorolog3 (JY Horiba) using 10×10 mm cuvettes or in a FFAu Meter (FFA Sciences) modified for measuring unbound bilirubin by replacing emission filters with ones centered at […]. Measurements of [Bf] were also performed on the same samples using the peroxidase method of Jacobsen and Wennberg [Jacobsen J and Wennberg R P. Determination of unbound bilirubin in the serum of newborns. Clin Chem 20: 783, 1974].

[1] = molecular target: T2, rI-FABP (SEQ ID NO: 3) variant ADIFAB2, 72A (Rattus norvegicus, UniProt P02693, L73A); assay: fatty acid binding to ADIFAB2
T2 construct: 6xHis (C)
T2 sequence (P02693 with tags, fused parts or gaps L73A): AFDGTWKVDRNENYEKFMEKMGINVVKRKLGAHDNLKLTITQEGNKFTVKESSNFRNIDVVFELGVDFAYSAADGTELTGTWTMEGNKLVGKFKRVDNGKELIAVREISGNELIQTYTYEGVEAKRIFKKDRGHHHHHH
Description: (§1) The major (>75%) FFA species generated from Intralipid® are linoleic, oleic, palmitic and linolenic FFA. Because ADIFAB2 is most specific for stearic acid, for which Intralipid® contains only between 1.5 and 5.5%, FFAu probes with specificity for linoleic, oleic, palmitic and linolenic FFA will provide more accurate and sensitive detection of the rise in plasma FFAu due to Intralipid® hydrolysis. Such FFAu probes have been produced (Table 10) using the methods described in U.S. Pat. No. 7,601,510 and U.S. publication 2010/0298162 and in [Huber A H, Kampf J P, Kwan T, Zhu B and Kleinfeld A M. Fatty acid-specific fluorescent probes and their use in resolving mixtures of different unbound free fatty acids in equilibrium with albumin. Biochemistry 45: 14263-14274, 2006]. Sensitive FFAu probes are necessary for detecting the rise in the patient's FFAu levels, early in the titration of Intralipid®, which is critical for the prevention of unbound bilirubin and FFAu from reaching toxic levels.

[2] = molecular target: T3, rI-FABP (SEQ ID NO: 3) variant L19CP10C7, MGI-14R 18L 27C 71I 73F 117D (Rattus norvegicus, UniProt P02693, A74F/K28C/L73A/M19L/S72I/Y118D/Y15R); assay: fatty acid binding to L19CP10C7
T3 construct: 6xHis (C); made in house
T3 sequence (P02693 with tags, fused parts or gaps Y15R/M19L/K28C/S72I/L73A/A74F/Y118D): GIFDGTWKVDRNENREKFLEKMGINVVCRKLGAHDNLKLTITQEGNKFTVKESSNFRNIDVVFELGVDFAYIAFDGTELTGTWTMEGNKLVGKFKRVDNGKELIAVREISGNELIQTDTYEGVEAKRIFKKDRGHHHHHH
Description: as §1

[3] = molecular target: T4, rI-FABP (SEQ ID NO: 3) variant L138P1H8 N24C, MGI-18L 21L 23Y 24C 31I 55V 72S 73S 74G 76V 117H 128Y (Rattus norvegicus, UniProt P02693, A74S/D75G/F129Y/F56V/G32I/I24Y/L73S/M19L/M22L/N25C/T77V/Y118H); assay: fatty acid binding to L138P1H8N24C
T4 construct: 6xHis (C); made in house
T4 sequence (P02693 with tags, fused parts or gaps with the stated changes): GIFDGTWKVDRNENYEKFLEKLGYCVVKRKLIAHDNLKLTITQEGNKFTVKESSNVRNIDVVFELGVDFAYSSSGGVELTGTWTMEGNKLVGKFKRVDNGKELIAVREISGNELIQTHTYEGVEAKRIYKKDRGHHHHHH
Description: as §1

[4] = molecular target: T5, rI-FABP (SEQ ID NO: 3) variant L22P5E11, 38R 69T 72A 73K 106A (Rattus norvegicus, UniProt P02693, A70T/A74K/L39R/L73A/R107A); assay: fatty acid binding to L22P5E11
T5 construct: 6xHis (C); made in house
T5 sequence (P02693 with tags, fused parts or gaps L39R/A70T/L73A/A74K/R107A): as the sequence (P02693 with tags, fused parts or gaps L73A) above, with L38R, A69T, A73K, R106A counted along it
Description: as §1

[5] = molecular target: T6, rI-FABP (SEQ ID NO: 3) variant L61P8 B12, 8I 14L 18L 23L 27Y 30C 31V 53I 55W 72G 73T 74A 78V 82V 91Y 93M 102V 106W 115W 117L (Rattus norvegicus, UniProt P02693, A74T/D75A/F56W/F94M/G32V/G92Y/I24L/K28Y/L103V/L31C/L73G/L79V/M19L/Q116W/R107W/S54I/V9I/W83V/Y118L/Y15L); assay: fatty acid binding to L61P8B12
T6 construct: 6xHis (C); made in house
T6 sequence (P02693 with tags, fused parts or gaps with the stated changes): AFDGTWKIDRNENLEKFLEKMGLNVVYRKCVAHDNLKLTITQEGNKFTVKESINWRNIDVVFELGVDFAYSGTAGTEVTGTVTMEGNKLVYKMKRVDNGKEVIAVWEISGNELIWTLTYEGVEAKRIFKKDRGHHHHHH
Description: as §1

[6] = molecular target: rI-FABP (SEQ ID NO: 3) variant L4BP4B9, 73W 74S (Rattus norvegicus, UniProt P02693, A74W/D75S/L73A); assay: fatty acid binding to L4BP4B9
Chain of rI-FABP (SEQ ID NO: 3) variant L4BP4B9, 73W 74S (P02693 with tags, fused parts or gaps L73A/A74W/D75S): as the sequence (P02693 with tags, fused parts or gaps L73A) above, with A73W, D74S counted along it
Description: as §1

[7] = molecular target: T7, rI-FABP (SEQ ID NO: 3) variant L119P3E5, 18V 27C 31A 72A 73W (Rattus norvegicus, UniProt P02693, A74W/G32A/K28C/L73A/M19V); assay: fatty acid binding to L119P3E5
T7 construct: 6xHis (C); made in house
T7 sequence (P02693 with tags, fused parts or gaps M19V/K28C/G32A/L73A/A74W): as the sequence (P02693 with tags, fused parts or gaps L73A) above, with M18V, K27C, G31A, A73W counted along it
Description: as §1

[8] = molecular target: T8, rI-FABP (SEQ ID NO: 3) variant BL22P1B11, MGI-KR14-14R 18L 25C 27A 38V 60R 73F 106L 115R 117D, SEQ ID NO: 35 (Rattus norvegicus, UniProt P02693, A74F/K101R/K126R/K17R/K21R/K28A/K30R/K38R/K47R/K51R/K89R/K8R/K93R/K95R/L39V/L73A/M19L/Q116R/R107L/V26C/V61R/Y118D/Y15R); type: binding
T8 construct: made in house
T8 sequence (P02693 with tags, fused parts or gaps with the stated changes): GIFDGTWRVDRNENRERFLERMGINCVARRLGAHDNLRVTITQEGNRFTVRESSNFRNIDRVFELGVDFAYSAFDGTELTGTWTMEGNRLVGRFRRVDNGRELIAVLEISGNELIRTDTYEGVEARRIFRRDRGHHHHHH

[9] = type: binding
[10] = Table 6, lysine labeled probes, Primary Fluor Acrylodan
[11] = Table 6, Primary Fluor Acrylodan
[12] = Table 6, Primary Fluor Biotium CF750 SE
[13] = Table 6, Primary Fluor Kodak X-Sight 670 LSS dye
[14] = Table 6, Primary Fluor LiCor IRDye 680 LT
[15] = Table 6, Primary Fluor LiCor IRDye 700DX

Molecule: C=CC1=C(C)/C(=C/c2[nH]c(Cc3[nH]c(/C=C4\NC(=O)C(C)=C4C=C)c(C)c3CCC(=O)O)c(CCC(=O)O)c2C)NC1=O [Bilirubin, unconjugated bilirubin IXα]
Kd (human albumin): 20 nM

Molecule: CCCCCCCC/C=C\CCCCCCCC(=O)O [Oleate 18:1 (n-9), Oleate]
Kd [1]: 21.5 nM | Kd [2]: 1.2 nM | Kd [3]: 7.6 nM | Kd [4]: 3.1 nM | Kd [5]: 4.3 nM | Kd [6]: 18.9 nM | Kd [7]: 12.7 nM

Molecule: CC/C=C\C/C=C\C/C=C\CCCCCCCC(=O)O [Linolenate 18:3 (n-3), Linolenate]
Kd [8]: 3.46 µM

Molecule: CCCCC/C=C\C/C=C\CCCCCCCC(=O)O [Linoleate 18:2 (n-6), Linoleate]
Kd [1]: 105 nM | Kd [2]: 0.8 nM | Kd [3]: 6.5 nM | Kd [4]: 6.7 nM | Kd [5]: 25.7 nM | Kd [6]: 40.8 nM | Kd [7]: 23 nM

B1: BL8P9 C9: SEQ 3 mutein: 18L, 38F, 60F, 73F, 106D, 115R, 117R (protein)
chain: AFDGTWKVDRNENYEKFLEKMGINVVKRKLGAHDNLKFTITQEGNKFTVKESSNFRNIDFVFELGVDFAYSAFDGTELTGTWTMEGNKLVGKFKRVDNGKELIAVDEISGNELIRTRTYEGVEAKRIFKKDRGHHHHHH
modifications: acrylodan labeled; rat intestinal fatty acid binding protein with substitution of Xaa at one or more of 14, 18, 23, 25, 27, 31, 36, 38, 55, 60, 72, 73, 74, 78, 102, 104, 106, 115 and 117; rat intestinal fatty acid binding protein in which one amino acid residue may be substituted with cysteine or lysine; optional 6His tag at N terminus; Xaa=any amino acid
Kd [9, 10]: 723 nM | Is [9, 11]: 0.00

B3: L1P14 D6: SEQ 3 mutein: 14M 72V 117W (protein)
chain: B1 chain with Y14M, L18M, F38L, F60V, A72V, F73A, D106R, R115Q, R117W
modifications: acrylodan label; rat intestinal fatty acid binding protein with substitution of Xaa at one or more of 14, 18, 23, 25, 27, 31, 36, 38, 55, 60, 72, 73, 74, 78, 102, 104, 106, 115 and 117; rat intestinal fatty acid binding protein in which one amino acid residue may be substituted with cysteine or lysine; optional 6His tag at N terminus; Xaa=any amino acid
Kd [9, 10]: 309 nM | Is [9, 11]: 0.04

B4: BL22P1B11 - 25K: SEQ 3 mutein: MGI - KR14 - 14R 18L 25K 27A 38V 60R 73F 106L 115R 117D (protein)
chain: B1 chain with Y14R, V25K, K27A, F38V, F60R, D106L, R117D
modifications: BL22P1B11; Tyr->Arg; Met-> Leu; Val-> Cys; Lys-> Ala; Leu-> Val; Val-> Arg; Leu-> Ala; Ala-> Phe; Arg-> Leu; Gln-> Arg; Tyr -> Asp; 6His tag at N terminus
Is [9, 12]: 0.19 | Kd [9, 12]: 9500 nM | Is [9, 13]: 0.61 | Kd [9, 13]: 700 nM | Is [9, 14]: 0.67 | Kd [9, 14]: 239 nM | Is [9, 15]: 0.14 | Kd [9, 15]: 80 nM

Second part, the molecule after the results:

Kd [9, 10]: 711 nM | Is [9, 11]: 0
B2: L1P1 B4: SEQ 3 mutein: 14I 72W 117W (protein)
chain: B1 chain with Y14I, L18M, F38L, F60V, A72W, F73A, D106R, R115Q, R117W
modifications: acrylodan label; rat intestinal fatty acid binding protein with substitution of Xaa at one or more of 14, 18, 23, 25, 27, 31, 36, 38, 55, 60, 72, 73, 74, 78, 102, 104, 106, 115 and 117; rat intestinal fatty acid binding protein in which one amino acid residue may be substituted with cysteine or lysine; optional 6His tag at N terminus; Xaa=any amino acid

Kd [9, 10]: 1050 nM | Is [9, 11]: 0.29
B5: BL8P9 G9: SEQ 3 mutein: 18L, 38A, 73F, 106V, 115R, 117D (protein)
chain: B1 chain with F38A, F60V, D106V, R117D
modifications: acrylodan labeled; rat intestinal fatty acid binding protein with substitution of Xaa at one or more of 14, 18, 23, 25, 27, 31, 36, 38, 55, 60, 72, 73, 74, 78, 102, 104, 106, 115 and 117; rat intestinal fatty acid binding protein in which one amino acid residue may be substituted with cysteine or lysine; optional 6His tag at N terminus; Xaa=any amino acid

Kd [9, 10]: 35.8 nM | Is [9, 11]: 0.11
B6: L1P1 C 12: SEQ 3 mutein: 38I 72W 117W (protein)
chain: B1 chain with L18M, F38I, F60V, A72W, F73A, D106R, R115Q, R117W
modifications: acrylodan label; rat intestinal fatty acid binding protein with substitution of Xaa at one or more of 14, 18, 23, 25, 27, 31, 36, 38, 55, 60, 72, 73, 74, 78, 102, 104, 106, 115 and 117; rat intestinal fatty acid binding protein in which one amino acid residue may be substituted with cysteine or lysine; optional 6His tag at N terminus; Xaa=any amino acid
